The results in this text go back to patent US20200010567A1 (NEURIMMUNE, published 2020).

For one test, the target named is T1, GP10: H-(GP)10HHHHHH-NH2 (C-terminal amide).
T1 peptide: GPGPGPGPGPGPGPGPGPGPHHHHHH
The experiment in a line: indirect ELISA, coated His-tagged peptide; indirect ELISA, peptide coated directly on the plate. An excerpt: (§1) In brief, dipeptide repeat proteins were synthesized and purified by Schafer-N (Copenhagen, Denmark): GA₂₀: H-(GA)₂₀HHHHHH-NH₂; GA₁₀: H-(GA)₁₀HHHHHH-NH₂; GA₆: H-(GA)₆HHHHHH-NH₂; GA₅: H-(GA)₅HHHHHH-NH₂; GA₄: H-(GA)₄HHHHHH-NH₂; GA₃: H-(GA)₃HHHHHH-NH₂; GA₂: H-(GA)₂HHHHHH-NH₂; GP₂₀: H-(GP)₂₀HHHHHH-NH₂; GP₁₀: H-(GP)₁₀HHHHHH-NH₂; GP₆: H-(GP)₆HHHHHH-NH₂; GP₅: H-(GP)₅HHHHHH-NH₂; GP₄: H-(GP)₄HHHHHH-NH₂; GP₃: H-(GP)₃HHHHHH-NH₂; GP₂: H-(GP)₂HHHHHH-NH₂. GR₂₀: H-(GR)₂₀HHHHHH-NH₂; GR₁₀: H-(GR)₁₀HHHHHH-NH₂; GR₆: H-(GR)₆HHHHHH-NH₂; GR₅: H-(GR)₅HHHHHH-NH₂; GR₄: H-(GR)₄HHHHHH-NH₂; GR₃: H-(GR)₃HHHHHH-NH₂; GR₂: H-(GR)₂HHHHHH-NH₂; PA₂₀: H-(PA)₂₀HHHHHH-NH₂; PA₁₀: H-(PA)₁₀HHHHHH-NH₂; PA₆: H-(PA)₆HHHHHH-NH₂; PA₅: H-(PA)₅HHHHHH-NH₂; PA₄: H-(PA)₄HHHHHH-NH₂; PA₃: H-(PA)₃HHHHHH-NH₂; PA₂: H-(PA)₂HHHHHH-NH₂; PR₂₀: H-(PR)₂₀HHHHHH-NH₂; PR₁₀: H-(PR)₁₀HHHHHH-NH₂; PR₆: H-(PR)₆HHHHHH-NH₂; PR₅: H-(PR)₅HHHHHH-NH₂; PR₄: H-(PR)₄HHHHHH-NH₂; PR₃: H-(PR)₃HHHHHH-NH₂; PR₂: H-(PR)₂HHHHHH-NH₂. 96-well microplates (Corning Incorporated, Corning, USA) were coated with dipeptide repeat protein peptides at a concentration of 50 μg/ml in coating buffer (15 mM Na₂CO₃, 35 mM NaHCO₃, pH 9.42). Non-specific binding sites were blocked for 1 h at room temperature with PBS/0.1% Tween®-20 containing 2% BSA (Sigma-Aldrich, Buchs, Switzerland). Primary antibodies were diluted to the indicated concentrations and incubated 1 h at room temperature, followed by incubation with a donkey anti-human IgG Fcγ-specific antibody conjugated with HRP (Jackson ImmunoResearch Laboratories, Inc., West Grove, USA). Binding was determined by measurement of HRP activity in a standard colorimetric assay. EC₅₀ values were estimated by non-linear regression using GraphPad Prism software (San Diego, USA).
(ELISA stands for enzyme-linked immunosorbent assay.)

For the next test, the target named is T2, GP6: H-(GP)6HHHHHH-NH2.
T2 peptide: H-GPGPGPGPGPGPHHHHHH-NH2
The description is as above.
Description: as §1

Another test has as its target T3, GA3: H-(GA)3HHHHHH-NH2.
T3 peptide: H-GAGAGAHHHHHH-NH2
The experiment in a line: indirect ELISA, His-tagged peptide coated at 50 ug/ml, antibody titrated [also D00026 FIG. 7K]. The protocol:
(§2) 96-well microplates (Corning Incorporated, Corning, USA) were coated with dipeptide repeat protein peptides at a concentration of 50 μg/ml in coating buffer (15 mM Na₂CO₃, 35 mM NaHCO₃, pH 9.42). Non-specific binding sites were blocked for 1 h at room temperature with PBS/0.1% Tween®-20 containing 2% BSA (Sigma-Aldrich, Buchs, Switzerland). Primary antibodies were diluted to the indicated concentrations and incubated 1 h at room temperature, followed by incubation with a donkey anti-human IgG Fcγ-specific antibody conjugated with HRP (Jackson ImmunoResearch Laboratories, Inc., West Grove, USA). Binding was determined by measurement of HRP activity in a standard colorimetric assay. EC₅₀ values were estimated by non-linear regression using GraphPad Prism software (San Diego, USA).
(§3) High affinity binding was detected for poly-GA DPRs harboring 10 or 20 (GA)-repeats, reflected in an EC₅₀ in the subnanomolar or low nanomolar range (FIGS. 7A, 7C-7I).

The next test addresses T4, GA4: H-(GA)4HHHHHH-NH2.
T4 peptide: H-GAGAGAGAHHHHHH-NH2
The test is described as above. The protocol:
as §2, §3

In test [1] the target is T5, BSA-coupled (PA)15 DPR protein peptide (bovine, UniProt P02769 25-607, conjugated via a bifunctional linker (SMCC) to bovine serum albumin).
T5 construct: also called BSA-(PA)15
T5 sequence (peptide, as listed by the source limits assumed, chain 1 of 2): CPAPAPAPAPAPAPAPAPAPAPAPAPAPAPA
T5 sequence (P02769 25-607 limits assumed, chain 2 of 2): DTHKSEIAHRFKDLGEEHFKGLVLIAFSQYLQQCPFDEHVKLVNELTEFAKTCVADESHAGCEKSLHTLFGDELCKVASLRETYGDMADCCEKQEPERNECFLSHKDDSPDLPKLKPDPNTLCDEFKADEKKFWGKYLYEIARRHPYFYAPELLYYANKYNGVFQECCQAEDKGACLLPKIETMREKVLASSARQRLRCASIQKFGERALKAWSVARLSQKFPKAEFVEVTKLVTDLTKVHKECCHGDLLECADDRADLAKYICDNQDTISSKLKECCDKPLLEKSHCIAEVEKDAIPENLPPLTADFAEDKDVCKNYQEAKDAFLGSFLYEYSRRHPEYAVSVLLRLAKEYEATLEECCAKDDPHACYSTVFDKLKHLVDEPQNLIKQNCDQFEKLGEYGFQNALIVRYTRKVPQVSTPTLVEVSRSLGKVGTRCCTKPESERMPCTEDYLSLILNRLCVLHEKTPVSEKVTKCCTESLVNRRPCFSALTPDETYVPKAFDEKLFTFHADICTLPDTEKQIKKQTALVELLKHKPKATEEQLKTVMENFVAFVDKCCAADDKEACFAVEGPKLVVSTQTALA
The experiment in a line: indirect ELISA, BSA-coupled peptide coated, antibody titrated [also D00015 FIG. 3K]. The protocol:
as §2, with “In brief, dipeptide repeat proteins were synthesized and purified by Schafer-N(Copenhagen, Denmark): (GA)₁₅: H-CHHHHHH(GA)₁₅-OH; (GP)₁₅: H-C(GP)₁₅-OH; (GR)₁₅: H-C(GR)₁₅-OH; (PA)₁₅: H-C(PA)₁₅-OH; (PR)₁₅: H—C(PR)₁₅-OH. DPR protein peptides were then conjugated via a bifunctional linker (SMCC) to bovine serum albumin (BSA). 96-well microplates” for “96-well microplates”, “coated with BSA-coupled or -uncoupled dipeptide repeat” for “coated with dipeptide repeat”, “concentration of either 5 μg/ml or 20 μg/ml in” for “concentration of 50 μg/ml in”

In test [2] the target is T6, BSA-coupled (GA)15 DPR protein peptide (bovine, conjugated via a bifunctional linker (SMCC) to bovine serum albumin).
T6 construct: also called BSA-(GA)15
T6 sequence (P02769 25-607 limits assumed): as the sequence (P02769 25-607 limits assumed, chain 2 of 2) above
The experiment in a line: indirect ELISA, BSA-coupled peptide coated, antibody titrated [also D00013 FIG. 3E]. As to the method:
as §2, with “In brief, dipeptide repeat proteins were synthesized and purified by Schafer-N(Copenhagen, Denmark): (GA)₁₅: H-CHHHHHH(GA)₁₅-OH; (GP)₁₅: H-C(GP)₁₅-OH; (GR)₁₅: H-C(GR)₁₅-OH; (PA)₁₅: H-C(PA)₁₅-OH; (PR)₁₅: H—C(PR)₁₅-OH. DPR protein peptides were then conjugated via a bifunctional linker (SMCC) to bovine serum albumin (BSA). 96-well microplates” for “96-well microplates”, “coated with BSA-coupled or -uncoupled dipeptide repeat” for “coated with dipeptide repeat”, “concentration of either 5 μg/ml or 20 μg/ml in” for “concentration of 50 μg/ml in”

Test [3] has as its target T7, (GA)15: H-CHHHHHH(GA)15-OH.
T7 construct: synthetic, not coupled to BSA; also called poly-GA DPR protein peptide
T7 peptide: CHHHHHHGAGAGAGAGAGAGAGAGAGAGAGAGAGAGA
The experiment in a line: indirect ELISA, uncoupled peptide coated, antibody titrated [also D00012 FIG. 3B]. As to the method: as §2, with “In brief, dipeptide repeat proteins were synthesized and purified by Schafer-N(Copenhagen, Denmark): (GA)₁₅: H-CHHHHHH(GA)₁₅-OH; (GP)₁₅: H-C(GP)₁₅-OH; (GR)₁₅: H-C(GR)₁₅-OH; (PA)₁₅: H-C(PA)₁₅-OH; (PR)₁₅: H—C(PR)₁₅-OH. DPR protein peptides were then conjugated via a bifunctional linker (SMCC) to bovine serum albumin (BSA). 96-well microplates” for “96-well microplates”, “coated with BSA-coupled or -uncoupled dipeptide repeat” for “coated with dipeptide repeat”, “concentration of either 5 μg/ml or 20 μg/ml in” for “concentration of 50 μg/ml in”

B1: NI-308.5G2 (antibody, V domains shown)
VH: EVQLVQSGADLRNPGASVTVSCTASGYHFADNAINWLRQAPGQRLEWMGWINIYSGNTKYSQNFQGRVTFTRNTSASTAFMHLRSLRSEDTAVYFCARDPDSSGYYLPYFDYWGQGTLVTVSS
VL: DIQLTQSPDSLTLSLGERATINCKSSQSVFYNSNNKNYLAWYQQKPGQPPKLLMYWASTRESGVTDRFSGSGSGTDFTLTITNLQAEDVAVYYCQQFYSSPLTFGGGTKVEIK
notes: Recombinant complete human IgG1, kappa
Regarding B1, the results for the EC50 with GP10: H-(GP)10HHHHHH-NH2 and in the test with GP6: H-(GP)6HHHHHH-NH2 were 0.94 nM and 26.8 nM, respectively. For the same molecule, the binding result with GA3: H-(GA)3HHHHHH-NH2 and with GA4: H-(GA)4HHHHHH-NH2 was “no binding (tested: about 4x10^5 pM (last point))” throughout.

B2: NI-308.4M1 (antibody, V domains shown)
VH: EVQLVETGGGVVQPGGSLRLSCEASGFTIGTYAMHWVRQFPGKGLDWVAVISFDGTTEYYTDAVKGRFTISRDNAKNTLYLQMNYLRGDDTAIYFCARDFTSSGETGSWTQVPDLWGQGTLVTVSS
VL: CEIVMTQSPATLSLSPGERATLSCRASQSVTKYLAWYQQKPGQAPRLLIYDVSYRAAGTPARFSGSGSGTDFTLTISSLEPEDFAVYYCHQRSSWPPVTFGGGTKVEIK
notes: as for B1
The molecule B2 displayed an EC50 in test [1] of 0.14 nM.

B3: NI-308.45C2 (antibody, V domains shown)
VH: QLQLQESGPGLVKPSQILSLTCAISGDSVFSNSAAWNWIRQSPSRGLEWLGRTYYRSKWDNDYAPSVKSRISINPDTSKNQFSLQLNSVTPEDTAVYYCAREVAYCGGDCYSVSFDYWGQGTLVTVSS
VL: not shown
notes: as for B1
Take B3: the half-maximal effective concentration (EC50) in test [2] is 15.2 nM.

B4: NI-308.18F7 (antibody, V domains shown)
VH: QVQLQESGPGLVKPSETLSVTCTVSGGSINDYYWNWIRQPAGKGLEWIGRIYASGTINYNPSLQSRVTMSIDTSKNQFSLDLISVSAADTAVYYCARWGQVVGDYYYGMDVWGQGTTVTVSS
VL: EIVLTQSPLSLSVTPGEPASISCKSSQSLQHTNGYNYLDWYLLKPGQSPQLLIFLTSNRASGVPDRFSGSGSGTNFTLKISRVEAEDVGVYYCMEGIQLWTFGQGTKLEIK
notes: as for B1
For the molecule B4, in test [3], the EC50 is 0.34 nM.

In general, EC50 refers to the midpoint of the concentration-response curve.
